# B1: Reticulophagy regulator 1 (Homo sapiens), Q9H6L5-1 (parent)
# chain: MASPAPPEHAEEGCPAPAAEEQAPPSPPPPQASPAERQQQEEEAQEAGAAEGAGLQVEEAAGRAAAAVTWLLGEPVLWLGCRADELLSWKRPLRSLLGFVAANLLFWFLALTPWRVYHLISVMILGRVIMQIIKDMVLSRTRGAQLWRSLSESWEVINSKPDERPRLSHCIAESWMNFSIFLQEMSLFKQQSPGKFCLLVCSVCTFFTILGSYIPGVILSYLLLLCAFLCPLFKCNDIGQKIYSKIKSVLLKLDFGIGEYINQKKRERSEADKEKSHKDDSELDFSALCPKISLTVAAKELSVSDTDVSEVSWTDNGTFNLSEGYTPQTDTSDDLDRPSEEVFSRDLSDFPSLENGMGTNDEDELSLGLPTELKRKKEQLDSGHRPSKETQSAAGLTLPLNSDQTFHLMSNLAGDVITAAVTAAIKDQLEGVQQALSQAAPIPEEDTDTEEGDDFELLDQSELDQIESELGLTQDQEAEAQQNKKSSGFLSNLLGGH
# Variants of: B1
# Settings: with MAP1LC3A
row,effect of a mutation on the interaction,Variant
1,disrupting interaction strength,D453A;D454A;F455A;E456A;L457A;L458A

# Source: IntAct's records for PubMed 26040720
